From US5130300A, “Method for enhancing growth of mammary parenchyma” (Monsanto Company, priority 1987, dated 1992)

Columns and labels:
[1] = tested on: Quarter-Udders in Pregnant Beef Cattle; experiment: Intramammary infusion of ovine prolactin, quarter-udder weights and DNA (Comparative Examples); assay type: in vivo, cross-bred beef cows
Method: 16 pregnant, non-lactating, cross-bred beef cows in their last 30-105 days of gestation were divided into 2 groups and tested for the effects of intramammary infusion using the procedures of Examples 25-28 except that instead of a prostaglandin, each treatment infusion contained either 2 mg (Group 1) or 10 mg (Group 2) of ovine prolactin obtained from Sigma Chemical Co., St. Louis, Mo. (Lot No. 26F-0076) in 10 ml of an emulsion of 0.9% saline containing 0.5% Tween-20 in sterile sesame oil containing 5% Arlacel A (3:2 oil: saline). Results are in Tables 22-23.

[2] = tested on: Quarter-Udders in Pregnant Holstein Heifers; experiment: Intramammary infusion, milk production per udder side in first 30 days after parturition (Examples 23-24, 42-43); assay type: in vivo
Method: 18 pregnant Holstein heifers within their last 40-60 days of expected calving were housed in a free-stall facility, fed a ration of alfalfa hay and pelleted concentrate and administered 10 ml of an excipient (sterile sesame oil) into each quarter-udder by intramammary infusion through the steak canal every third day for the number of treatments shown below. The heifers in Groups 1 and 3 were treated no later than their fifth day before parturition; treatments of those in Groups 2 and 4 were continued into their last five days. Treatments containing a mitogenic substance were administered to both quarter-udders on one side of each animal. Excipient only was administered to both quarter-udders on the opposite side of that animal. All infusions were carried out with a Jorgensen laboratories infusion canula of the kind used in Examples 1-2. Each teat was sprayed with 70% ethanol and wiped dry prior to treatment, and dipped with an iodine solution following treatment. These animals were milked normally each a.m. and p.m. for the first 30 days after parturition, with milk production recorded separately for each quarter-udder. […] Shown in Table 21 are the milk production results obtained with the heifers of Group 3 in Examples 23-24. On average, milk production by the half-udders that had been treated in Group 4 of Examples 23-24 slightly exceeded (2%, p<0.4) that of their control half-udders.

[3] = tested on: Quarter-Udders in Pregnant Beef Cows; experiment: Intramammary infusion of BST, quarter-udder weights and DNA (Examples 40-41); assay type: in vivo, cross-bred beef cows; conditions: for DNA, % Increase, (A-B)/B / DNA, Mean Increase (A-B) / Dry Fat-Free Weight, % Increase, (A-B)/B / Dry Fat-Free Weight, Mean Increase (A-B) / Dry Weight, % Increase, (A-B)/B / Dry Weight, Mean Increase (A-B) / Wet Weight, % Increase, (A-B)/B / Wet Weight, Mean Increase (A-B): B = excipient only
Method: 24 pregnant, non-lactating, cross-bred beef cows in their last 40-80 days of gestation were divided into 2 groups and tested for the effects of intramammary infusion using the procedures of Examples 3-6 except that (A) the volume of excipient in each infusion was 5 ml and (B) each treatment infusion contained a 1% zinc salt of an N-methionyl bovine somatotropin (BST) (Group 1-100 mg; Group 2-40 mg) prepared by expression of recombinant DNA and purified essentially as described in Example 1A of U.S. Patent Appln. No. 787,873 filed Oct. 16, 1985 based on European Patent Appln. No. 177,478 published Apr. 9, 1986, both incorporated here by reference. Results are in Tables 19-20.

[4] = Group 1: total of 10 milligrams (2 mg per infusion)
[5] = Group 1: total of 10 milligrams, B = control mean
[6] = Group 2: total dose of 50 milligrams (10 mg per infusion)
[7] = Group 2: total dose of 50 milligrams, B = control mean
[8] = Group 1: total of 500 milligrams BST
[9] = Group 1: total of 500 milligrams BST (100 mg per infusion)
[10] = Group 2: total of 200 milligrams BST
[11] = Group 2: total of 200 milligrams BST (40 mg per infusion)

B1: Ovine Prolactin: ovine prolactin from Sigma Chemical Co. (Lot No. 26F-0076), comparative example (protein, UniProt P01240 31-229, looked up)
Prolactin: TPVCPNGPGNCQVSLRDLFDRAVMVSHYIHNLSSEMFNEFDKRYAQGKGFITMALNSCHTSSLPTPEDKEQAQQTHHEVLMSLILGLLRSWNDPLYHLVTEVRGMKGVPDAILSRAIEIEEENKRLLEGMEMIFGQVIPGAKETEPYPVWSGLPSLQTKDEDARHSAFYNLLHCLRRDSSKIDTYLKLLNCRIIYNNNC
For B1, the “DNA, Treatment Mean” value [1, 4] was 2526 mg, the “Dry Fat-Free Weight, Treatment Mean” value [1, 4] was 137.8 g and the “Dry Weight, Treatment Mean” value [1, 4] was 262.7 g. The “Wet Weight, Treatment Mean” value [1, 4] was 895.3 g, the “Dry Fat-Free Weight, % Increase, (A-B)/B” value [1, 5] was “.88%” and the “Dry Fat-Free Weight, Mean Increase (A-B)” value [1, 5] was 1.2 g. The “Dry Weight, % Increase, (A-B)/B” value [1, 5] was 1.0%, the “Dry Weight, Mean Increase (A-B)” value [1, 5] was 4.8 g and the “Wet Weight, % Increase, (A-B)/B” value [1, 5] was “.6%”. For the same molecule, the “Wet Weight, Mean Increase (A-B)” value [1, 5] was 5.4 g, the “DNA, Treatment Mean” value [1, 6] was 3672 mg and the “Dry Fat-Free Weight, Treatment Mean” value [1, 6] was 189.2 g. For the same molecule, the “Dry Weight, Treatment Mean” value [1, 6] was 343.4 g, the “Wet Weight, Treatment Mean” value [1, 6] was 1487.1 g and the “DNA, % Increase, (A-B)/B” value [1, 7] was 10.5%. For the same molecule, the “DNA, Mean Increase (A-B)” value [1, 7] was 350 mg, the “Dry Fat-Free Weight, % Increase, (A-B)/B” value [1, 7] was 2.5% and the “Dry Fat-Free Weight, Mean Increase (A-B)” value [1, 7] was 4.7 g. For the same molecule, the “Wet Weight, % Increase, (A-B)/B” value [1, 7] was 13.6% and the “Wet Weight, Mean Increase (A-B)” value [1, 7] was 178.6 g.

B2: BST: N-methionyl bovine somatotropin prepared by expression of recombinant DNA (protein, UniProt P01246 27-217, looked up)
Somatotropin: AFPAMSLSGLFANAVLRAQHLHQLAADTFKEFERTYIPEGQRYSIQNTQVAFCFSETIPAPTGKNEAQQKSDLELLRISLLLIQSWLGPLQFLSRVFTNSLVFGTSDRVYEKLKDLEEGILALMRELEDGTPRAGQILKQTYDKFDTNMRSDDALLKNYGLLSCFRKDLHKTETYLRVMKCRRFGEASCAF
modifications: N-terminal Met
notes: N-methionyl bovine somatotropin prepared by expression of recombinant DNA
For B2, the “Average Milk Production, Treated Side (A)” value ([2]; BST 50 mg per infusion every third day, no later than fifth day before parturition (Group 3 per text), first 30 days after parturition) was 10.9 kg/day, the “Average Milk Production, % Increase, (A-B)/B” value ([2]; BST 50 mg per infusion, no later than fifth day before parturition (Group 3 per text), B = control side, excipient only) was 11% and the “Milk production of treated half-udders in excess of control half-udders” value ([2]; Group 4: BST 50 mg per infusion, treatments continued into last five days before parturition) was 2%. The “DNA, Avg. % Increase/Animal” value [3, 8] was 10.5%, the “Dry Fat-Free Weight, Avg. % Increase/Animal” value [3, 8] was 7.9% and the “Dry Weight, Avg. % Increase/Animal” value [3, 8] was 10.7%. For the same molecule, the “Wet Weight, Avg. % Increase/Animal” value [3, 8] was 9.8%, the “DNA, Treatment Mean” value [3, 9] was 2185 mg and the “Dry Fat-Free Weight, Treatment Mean” value [3, 9] was 146.7 g. The “Dry Weight, Treatment Mean” value [3, 9] was 207.6 g, the “Wet Weight, Treatment Mean” value [3, 9] was 790.1 g and the “DNA, % Increase, (A-B)/B” value [3, 8] was 6.4%. For the same molecule, the “DNA, Mean Increase (A-B)” value [3, 8] was 131 mg, the “Dry Fat-Free Weight, % Increase, (A-B)/B” value [3, 8] was 3.6% and the “Dry Fat-Free Weight, Mean Increase (A-B)” value [3, 8] was 5.2 g. The “Dry Weight, % Increase, (A-B)/B” value [3, 8] was 8.9%, the “Dry Weight, Mean Increase (A-B)” value [3, 8] was 17.0 g and the “Wet Weight, % Increase, (A-B)/B” value [3, 8] was 7.3%. The “Wet Weight, Mean Increase (A-B)” value [3, 8] was 53.5 g, the “DNA, Avg. % Increase/Animal” value [3, 10] was 15.8% and the “Dry Fat-Free Weight, Avg. % Increase/Animal” value [3, 10] was 7.8%. For the same molecule, the “Dry Weight, Avg. % Increase/Animal” value [3, 10] was 10.7%, the “Wet Weight, Avg. % Increase/Animal” value [3, 10] was 13.4% and the “DNA, Treatment Mean” value [3, 11] was 1371 mg. The “Dry Fat-Free Weight, Treatment Mean” value [3, 11] was 49.5 g, the “Dry Weight, Treatment Mean” value [3, 11] was 96.4 g and the “Wet Weight, Treatment Mean” value [3, 11] was 396.9 g. For the same molecule, the “DNA, % Increase, (A-B)/B” value [3, 10] was 5.5%, the “DNA, Mean Increase (A-B)” value [3, 10] was 72 mg and the “Dry Fat-Free Weight, % Increase, (A-B)/B” value [3, 10] was 10.5%. For the same molecule, the “Dry Fat-Free Weight, Mean Increase (A-B)” value [3, 10] was 4.7 g, the “Dry Weight, % Increase, (A-B)/B” value [3, 10] was 13.3% and the “Dry Weight, Mean Increase (A-B)” value [3, 10] was 11.3 g. For the same molecule, the “Wet Weight, % Increase, (A-B)/B” value [3, 10] was 14.9% and the “Wet Weight, Mean Increase (A-B)” value [3, 10] was 51.5 g.
